# Source: the NTF2 design screens of Basanta et al. (2020)
# Test: protease stability score; higher = more stable; yeast display proteolysis, trypsin and chymotrypsin;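 note: relative to predicted unfolded state with 0 unfolded-like and 1 meaning tenfold more protease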
row,Sequence,protease stability score
1,DEDERISRNFVRLILHAIRTGNENMIKTMADPNDRLEVGDKEFHGRELALEFWFRFDVLKEFHIRSVHSQGDKLHIEGESTWVIGDKEIRTTEHRLIIKIDGQWVLTEIKME,1.62
2,DEEERHVRELLREWIESLFTGDEHRLMELADPHARSHIDGVDLHGRENMHRMIHELRITDMRIRRISVRLVGDFVDVRVDGESDIYFNGQRLHTQIDIVIISSKIDGKWVIEEVHHNIE,0.763
3,HEHDQKSNKMSEILMELWKTGNEDWMDKLVDPNARTDIEVGDKRIENVGMEELHKWLFDHHRRIKGIKIIHRTMEVVGDKVTLHLELRFNGVRVEIIIRLIVIDGRVHSQHYEVRTE,0.59
4,SEDDDHSEHMYRRILELWKTGNWRLFHELLDPNTRFEIGDKEFHGREEVVEYLRRDLEKFKNIRFHIRQHEVVGNKLHIDGEIIFNGKHEHVHIILLIVDGKIKEIRFESR,2.72
5,SEEEESSKYAIELLRKVVETGDWRLIQRLADPHAKIEQGDKRLHGRETVTKHLIELGIDHIKFRDSRVQGDKVELDGEVDVNGQHRDTHILIEKIDGVWVWRRFEIK,0.97
6,DEEDEQREHLLELLFHFLRTGDEELLFRLADPRVRHVWNGRELHGRELVIEILDDELEKMGANHIHIDLERVRMVDGRLDVDGHIVIKIGDKSHFFDMHFHIRKIDGRWVIKDLTIR,0.853
7,SEEERETKLMDEIYQRLFKTGDEHKFLRLADPHAKFHFDGREDHGMHNSTRIWKKLNDILGLDNIRFHVRDWTVFDGVAHVDGKLVINGKEIEVKLHVVVVNGRVKSVSIEHE,0.924
8,REDVEDFKRFIELEVHAHETGDEDLLRKLLDPHVRVIIDGVTIVGWKALRDLLERFDHYTIHHMHIEDLRIQGDKIIVDLRLDLIFNYNGRHLRVDSHARIIMIKYNGRWYNHSIEFE,2.12
9,SEEEELAREAMRILIEAIVTGDEDEIRRLLDPHVRIEVHIGDKSIKNHGRESMVRILRWLGVDHIDIKRFRLEIQGEFLHLDLDTEFHFNGVTVRTRINNRSLKINGRWQTKEVKYFIE,1.27
10,DEDEELAKKFIEEWHESVLTGDEDSLRKLADPNMKVNVDGRHMVGWEYYKHLLERIDHLTSIEIKRLRVIDGVIDTDVRMDITFDGKRHLLETQLIVLKVNGRWHLRSISMK,1.36
11,DEEDEYYNMALEHFVKTILTGNWKRFKKLADPHVRMEIDGREHHGREEATKVFNRFDHIKNFDFRDIELQGEKIEVHGELHGTINGKDVHTSFHIIMYKVNGKWEEKEVKFQ,1.28
12,DEEEKVSRLAWELLFKTWKTGDEHEFHHMFDPDVRVDFNGRHLHGREAEEILFKQVDHIEDLHLRHIHMIDGKIQIEEDVVGHFNGQRTNVHVRFVAKKIDGRWRNKMVIVR,1.2
13,DEHDEHYHRLMKVLVDMMATGDWRTIHELMDPDARSDIDGREVHGREEVIRVIKEFFDKFKGARIEIRLRRWDTINGRIDVRVQLDVNFNGRTEQYDTRIHNVVVDGVSEELTVEVK,1.39
14,DEHTDYIREILRLLSEVVRTGDEDSLRRLLDPDARIVINGVDLIGMEHWFRLMFEIRHFAEDSKLEHSEVQGDKVIAHGRYHGEYEFDGRRRRHDTEVEMHVHKIDGRWYVRSLSIR,1.72
15,SKLEEDTRRAVEHFLKNIHTGDEHELTKMLDPNVRLDFDGREYHGREEVVHYLFRIMHEFGADHSEVKHWHVQGDFMQVDTRLHVGDKFFETELYMHKINGRWYVKHIIIR,2.13
16,DEREKFAEEIMEIFIRDVLTGDFDSLHKLIDPNTKIDLHIGDKIRPLHGREEFVKWVKEMRIHRWDITDMKVIGDKAHIDTTVDGEFNGRRTRFRQIINLDMVNGRLREIQITIG,2.2
17,REDEEHTKELLDAWQEAVETGDEDFILELFDPHVRSQVGDKERHGRHSFLELLRRLLEELGFDHVQFHITHREIQGDKITVETRLIFEYGDKRLEVQVEVEVKKINGRWYIHSVRWK,1.87
18,TEDEEAAERMIKTWLEKIITGNEEFLTEFMDPDTKVDINGKELHGWEDILQHLRHIRVHDMHVEIEDVRFINGVIEIRGTMHKDGEVNGRRTQTEQHVVFVLQKIDGRWRLRSYSIR,2.27
19,SEDENLIKHVKELLTHRAHTGDERELERLVDPNVKIIVGDKFQIGRELMLETWHRWLEEAGVDQIRLTLHHERIQGDYIILEVTYDVNGREIELTIIHIKVNGKWRLHSMKVR,0.529
20,DEKEEVLEKLDRLVMEAMETGDWELITKNFDPNTRITINGRELIGRAEWHRFLEEMRHSIKDYRIRSKREYDGRIEVDTESHFIVNIDGKRIEYETRTHVIMTKIDGKWLFTSVEVR,1.97
21,TKDDEDRKHFEKLLRHSLETGNWHDMQRNADPNVRLNVNGVEIHGMDTAYELWVEELNRADHIEIHMEHSTRVGDKLHLDVNVIMKQGDKHIERRVRLVVLKINGRWFIHSVHVH,1.1
22,DENDTARKIIKTLLDIMREGDEDKLRDQMDPNVRADVGDKTVHGREHAAKFLAHIVKRADHISITLKSLHNHNGRLRMQAEVRIVHNGRTERVTLEMVFRDHNGKLLIERMKYG,2.36
23,DEEEELAIEVVQRWVEDFLTGDFRSFRELADPNTKTRINGQEMHGRHVYVEWFVKWLKQIDHHDFKLHDVKVINGQVHTDGEMRLEVNGREHRSRVELILVIINGRLHMVELRIK,2.13
24,DEEREHSEEALLLLLHLIMTGDEEELIKNVDPNARITQGDKEFHGREVVIKHLFELMHRFGVKHFTVDHVEIFNGRLFIRFTLHFNGRKIDEHLILVKINGRWLLKSMEIK,2.21
25,DEWLEIAHRFVEELVRSLLTGDEDTLTKLIDPNVRLNINGQEVVGMTEVNRAWHELRIEDEHIRRIDVQGDYVRIHSQRRGEVNGVHTEFEVVIIISKFDGRWVIKSEHVH,1.24
